Laboratory results: patent US20200199241A1 (Chugai, published 2020)

Molecular target: T1, human FcRn (soluble human FcRn complexed with β2-microglobulin) (human, UniProt P61769 21-119, limits assumed)
T1 construct: also called hFcRn
Experiment: SPR, pH 7.0;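 also: antibodies captured on a Protein L sensor chip with human FcRn injected as analyte, KD calculated from fitted association and dissociation rate constants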

Row | Binder | Kd
1 | IgG1-F236 (antibody, EU numbering; copies: 2 + 2) heavy: QVQLQESGPGLVKPSETLSLTCAVSGHSISHDHAWSWVRQPPGEGLEWIGFISYSGITNYNPSLQGRVTISRDNSKNTLYLQMNSLRAEDTAVYYCARSLARTTAMDYWGEGTLVTVSSASTKGPSVFPLAPSSKSTSGGTAALGCLVKDYFPEPVTVSWNSGALTSGVHTFPAVLQSSGLYSLSSVVTVPSSSLGTQTYICNVNHKPSNTKVDKKVEPKSCDKTHTCPPCPAPELLGGPSVFLFPPKPIDTLMISRTPEVTCVVVDVSHEDPEVKFNWYVDGVEVHNAKTKPREEQYNSTYRVVSVLTVLHQDWLNGKEYKCKVSNKALPAPIEKTISKAKGQPREPQVYTLPPSRDELTKNQVSLTCLVKGFYPSDIAVEWESNGQPENNYKTTPPVLDSDGSFFLYSKLTVDKSRWQQGNVFSCSVLHEALHYHYTQKSLSLSP light: not shown | 890 nM
2 | IgG1-F249 (antibody, EU numbering; copies: 2 + 2) heavy: QVQLQESGPGLVKPSETLSLTCAVSGHSISHDHAWSWVRQPPGEGLEWIGFISYSGITNYNPSLQGRVTISRDNSKNTLYLQMNSLRAEDTAVYYCARSLARTTAMDYWGEGTLVTVSSASTKGPSVFPLAPSSKSTSGGTAALGCLVKDYFPEPVTVSWNSGALTSGVHTFPAVLQSSGLYSLSSVVTVPSSSLGTQTYICNVNHKPSNTKVDKKVEPKSCDKTHTCPPCPAPELLGGPSVFLFPPKPKDTLYISRTPEVTCVVVDVSHEDPEVKFNWYVDGVEVHNAKTKPREEQYNSTYRVVSVLTVLHQDWLNGKEYKCKVSNKALPAPIEKTISKAKGQPREPQVYTLPPSRDELTKNQVSLTCLVKGFYPSDIAVEWESNGQPENNYKTTPPVLDSDGSFFLYSKLTVDKSRWQQGNVFSCSVSHEALHYHYTQKSLSLSP light: not shown | 640 nM
3 | IgG1-F244 (antibody, EU numbering; copies: 2 + 2) heavy: QVQLQESGPGLVKPSETLSLTCAVSGHSISHDHAWSWVRQPPGEGLEWIGFISYSGITNYNPSLQGRVTISRDNSKNTLYLQMNSLRAEDTAVYYCARSLARTTAMDYWGEGTLVTVSSASTKGPSVFPLAPSSKSTSGGTAALGCLVKDYFPEPVTVSWNSGALTSGVHTFPAVLQSSGLYSLSSVVTVPSSSLGTQTYICNVNHKPSNTKVDKKVEPKSCDKTHTCPPCPAPELLGGPSVFLFPPKPKDTLYISRTPEVTCVVVDVSHEDPEVKFNWYVDGVEVHNAKTKPREEQYNSTYRVVSVLTVLHQDWLNGKEYKCKVSNKALPAPIEKTISKAKGQPREPQVYTLPPSRDELTKNQVSLTCLVKGFYPSDIAVEWESNGQPENNYKTTPPVLDSDGSFFLYSKLTVDKSRWQQGNVFSCSVKHEALHYHYTQKSLSLSP light: not shown | 1300 nM
4 | IgG1-F238 (antibody, EU numbering; copies: 2 + 2) heavy: QVQLQESGPGLVKPSETLSLTCAVSGHSISHDHAWSWVRQPPGEGLEWIGFISYSGITNYNPSLQGRVTISRDNSKNTLYLQMNSLRAEDTAVYYCARSLARTTAMDYWGEGTLVTVSSASTKGPSVFPLAPSSKSTSGGTAALGCLVKDYFPEPVTVSWNSGALTSGVHTFPAVLQSSGLYSLSSVVTVPSSSLGTQTYICNVNHKPSNTKVDKKVEPKSCDKTHTCPPCPAPELLGGPSVFLFPPKPKDTLYISRTPEVTCVVVDVSHEDPEVKFNWYVDGVEVHNAKTKPREEQYNSTYRVVSVLTVLHQDWLNGKEYKCKVSNKALPAPIEKTISKAKGQPREPQVYTLPPSRDELTKNQVSLTCLVKGFYPSDIAVEWESNGQPENNYKTTPPVLDSDGSFFLYSKLTVDKSRWQQGNVFSCSVDHEALHYHYTQKSLSLSP light: not shown | 740 nM
5 | IgG1-F242 (antibody, EU numbering; copies: 2 + 2) heavy: QVQLQESGPGLVKPSETLSLTCAVSGHSISHDHAWSWVRQPPGEGLEWIGFISYSGITNYNPSLQGRVTISRDNSKNTLYLQMNSLRAEDTAVYYCARSLARTTAMDYWGEGTLVTVSSASTKGPSVFPLAPSSKSTSGGTAALGCLVKDYFPEPVTVSWNSGALTSGVHTFPAVLQSSGLYSLSSVVTVPSSSLGTQTYICNVNHKPSNTKVDKKVEPKSCDKTHTCPPCPAPELLGGPSVFLFPPKPKDTLYISRTPEVTCVVVDVSHEDPEVKFNWYVDGVEVHNAKTKPREEQYNSTYRVVSVLTVLHQDWLNGKEYKCKVSNKALPAPIEKTISKAKGQPREPQVYTLPPSRDELTKNQVSLTCLVKGFYPSDIAVEWESNGQPENNYKTTPPVLDSDGSFFLYSKLTVDKSRWQQGNVFSCSVHHEALHYHYTQKSLSLSP light: not shown | 850 nM
6 | IgG1-F246 (antibody, EU numbering; copies: 2 + 2) heavy: QVQLQESGPGLVKPSETLSLTCAVSGHSISHDHAWSWVRQPPGEGLEWIGFISYSGITNYNPSLQGRVTISRDNSKNTLYLQMNSLRAEDTAVYYCARSLARTTAMDYWGEGTLVTVSSASTKGPSVFPLAPSSKSTSGGTAALGCLVKDYFPEPVTVSWNSGALTSGVHTFPAVLQSSGLYSLSSVVTVPSSSLGTQTYICNVNHKPSNTKVDKKVEPKSCDKTHTCPPCPAPELLGGPSVFLFPPKPKDTLYISRTPEVTCVVVDVSHEDPEVKFNWYVDGVEVHNAKTKPREEQYNSTYRVVSVLTVLHQDWLNGKEYKCKVSNKALPAPIEKTISKAKGQPREPQVYTLPPSRDELTKNQVSLTCLVKGFYPSDIAVEWESNGQPENNYKTTPPVLDSDGSFFLYSKLTVDKSRWQQGNVFSCSVPHEALHYHYTQKSLSLSP light: not shown | 1100 nM
7 | IgG1-F245 (antibody, EU numbering; copies: 2 + 2) heavy: QVQLQESGPGLVKPSETLSLTCAVSGHSISHDHAWSWVRQPPGEGLEWIGFISYSGITNYNPSLQGRVTISRDNSKNTLYLQMNSLRAEDTAVYYCARSLARTTAMDYWGEGTLVTVSSASTKGPSVFPLAPSSKSTSGGTAALGCLVKDYFPEPVTVSWNSGALTSGVHTFPAVLQSSGLYSLSSVVTVPSSSLGTQTYICNVNHKPSNTKVDKKVEPKSCDKTHTCPPCPAPELLGGPSVFLFPPKPKDTLYISRTPEVTCVVVDVSHEDPEVKFNWYVDGVEVHNAKTKPREEQYNSTYRVVSVLTVLHQDWLNGKEYKCKVSNKALPAPIEKTISKAKGQPREPQVYTLPPSRDELTKNQVSLTCLVKGFYPSDIAVEWESNGQPENNYKTTPPVLDSDGSFFLYSKLTVDKSRWQQGNVFSCSVNHEALHYHYTQKSLSLSP light: not shown | 470 nM
8 | IgG1-F241 (antibody, EU numbering; copies: 2 + 2) heavy: QVQLQESGPGLVKPSETLSLTCAVSGHSISHDHAWSWVRQPPGEGLEWIGFISYSGITNYNPSLQGRVTISRDNSKNTLYLQMNSLRAEDTAVYYCARSLARTTAMDYWGEGTLVTVSSASTKGPSVFPLAPSSKSTSGGTAALGCLVKDYFPEPVTVSWNSGALTSGVHTFPAVLQSSGLYSLSSVVTVPSSSLGTQTYICNVNHKPSNTKVDKKVEPKSCDKTHTCPPCPAPELLGGPSVFLFPPKPKDTLYISRTPEVTCVVVDVSHEDPEVKFNWYVDGVEVHNAKTKPREEQYNSTYRVVSVLTVLHQDWLNGKEYKCKVSNKALPAPIEKTISKAKGQPREPQVYTLPPSRDELTKNQVSLTCLVKGFYPSDIAVEWESNGQPENNYKTTPPVLDSDGSFFLYSKLTVDKSRWQQGNVFSCSVGHEALHYHYTQKSLSLSP light: not shown | 1500 nM

The next lines start with the values.

Row | Kd | Binder
9 | 250 nM | IgG1-F230 (antibody, EU numbering; copies: 2 + 2) heavy: QVQLQESGPGLVKPSETLSLTCAVSGHSISHDHAWSWVRQPPGEGLEWIGFISYSGITNYNPSLQGRVTISRDNSKNTLYLQMNSLRAEDTAVYYCARSLARTTAMDYWGEGTLVTVSSASTKGPSVFPLAPSSKSTSGGTAALGCLVKDYFPEPVTVSWNSGALTSGVHTFPAVLQSSGLYSLSSVVTVPSSSLGTQTYICNVNHKPSNTKVDKKVEPKSCDKTHTCPPCPAPELLGGPSVFLFPPKPKDTLYISRTPEVTCVVVDVSHEDPEVKFNWYVDGVEVHNAKTKPREEQYNSTYRVVSVLTVLHQDWLNGKEYKCKVSNKALPAPIEKTISKAKGQPREPQVYTLPPSRDELTKNQVSLTCLVKGFYPSDIAVEWESNGQEENNYKTTPPVLDSDGSFFLYSKLTVDKSRWQQGNVFSCSVMHEALHYHYTQKSLSLSP light: not shown
10 | 440 nM | IgG1-F247 (antibody, EU numbering; copies: 2 + 2) heavy: QVQLQESGPGLVKPSETLSLTCAVSGHSISHDHAWSWVRQPPGEGLEWIGFISYSGITNYNPSLQGRVTISRDNSKNTLYLQMNSLRAEDTAVYYCARSLARTTAMDYWGEGTLVTVSSASTKGPSVFPLAPSSKSTSGGTAALGCLVKDYFPEPVTVSWNSGALTSGVHTFPAVLQSSGLYSLSSVVTVPSSSLGTQTYICNVNHKPSNTKVDKKVEPKSCDKTHTCPPCPAPELLGGPSVFLFPPKPKDTLYISRTPEVTCVVVDVSHEDPEVKFNWYVDGVEVHNAKTKPREEQYNSTYRVVSVLTVLHQDWLNGKEYKCKVSNKALPAPIEKTISKAKGQPREPQVYTLPPSRDELTKNQVSLTCLVKGFYPSDIAVEWESNGQPENNYKTTPPVLDSDGSFFLYSKLTVDKSRWQQGNVFSCSVQHEALHYHYTQKSLSLSP light: not shown
11 | 230 nM | IgG1-F237 (antibody, EU numbering; copies: 2 + 2) heavy: QVQLQESGPGLVKPSETLSLTCAVSGHSISHDHAWSWVRQPPGEGLEWIGFISYSGITNYNPSLQGRVTISRDNSKNTLYLQMNSLRAEDTAVYYCARSLARTTAMDYWGEGTLVTVSSASTKGPSVFPLAPSSKSTSGGTAALGCLVKDYFPEPVTVSWNSGALTSGVHTFPAVLQSSGLYSLSSVVTVPSSSLGTQTYICNVNHKPSNTKVDKKVEPKSCDKTHTCPPCPAPELLGGPSVFLFPPKPKDTLYISRTPEVTCVVVDVSHEDPEVKFNWYVDGVEVHNAKTKPREEQYNSTYRVVSVLTVLHQDWLNGKEYKCKVSNKALPAPIEKTISKAKGQPREPQVYTLPPSRDELTKNQVSLTCLVKGFYPSDIAVEWESNGQPENNYKTTPPVLDSDGSFFLYSKLTVDKSRWQQGNVFSCSVAHEALHYHYTQKSLSLSP light: not shown
12 | 720 nM | IgG1-F240 (antibody, EU numbering; copies: 2 + 2) heavy: QVQLQESGPGLVKPSETLSLTCAVSGHSISHDHAWSWVRQPPGEGLEWIGFISYSGITNYNPSLQGRVTISRDNSKNTLYLQMNSLRAEDTAVYYCARSLARTTAMDYWGEGTLVTVSSASTKGPSVFPLAPSSKSTSGGTAALGCLVKDYFPEPVTVSWNSGALTSGVHTFPAVLQSSGLYSLSSVVTVPSSSLGTQTYICNVNHKPSNTKVDKKVEPKSCDKTHTCPPCPAPELLGGPSVFLFPPKPKDTLYISRTPEVTCVVVDVSHEDPEVKFNWYVDGVEVHNAKTKPREEQYNSTYRVVSVLTVLHQDWLNGKEYKCKVSNKALPAPIEKTISKAKGQPREPQVYTLPPSRDELTKNQVSLTCLVKGFYPSDIAVEWESNGQPENNYKTTPPVLDSDGSFFLYSKLTVDKSRWQQGNVFSCSVFHEALHYHYTQKSLSLSP light: not shown
13 | 180 nM | IgG1-F243 (antibody, EU numbering; copies: 2 + 2) heavy: QVQLQESGPGLVKPSETLSLTCAVSGHSISHDHAWSWVRQPPGEGLEWIGFISYSGITNYNPSLQGRVTISRDNSKNTLYLQMNSLRAEDTAVYYCARSLARTTAMDYWGEGTLVTVSSASTKGPSVFPLAPSSKSTSGGTAALGCLVKDYFPEPVTVSWNSGALTSGVHTFPAVLQSSGLYSLSSVVTVPSSSLGTQTYICNVNHKPSNTKVDKKVEPKSCDKTHTCPPCPAPELLGGPSVFLFPPKPKDTLYISRTPEVTCVVVDVSHEDPEVKFNWYVDGVEVHNAKTKPREEQYNSTYRVVSVLTVLHQDWLNGKEYKCKVSNKALPAPIEKTISKAKGQPREPQVYTLPPSRDELTKNQVSLTCLVKGFYPSDIAVEWESNGQPENNYKTTPPVLDSDGSFFLYSKLTVDKSRWQQGNVFSCSVIHEALHYHYTQKSLSLSP light: not shown
